B1: U3 small nucleolar RNA-associated protein 25 homolog (Homo sapiens), Q68CQ4 (parent)
chain: MGKRGSRSQSQLLNTLTKKQKKHLRDFGEEHPFYDRVSRKEAKPQICQLSESSDSSDSESDSESEPQQVSGYHRLLATLKNVSEEEEEDEEEEEEEDSIVDDAEMNDEDGGSDVSVEEEMAAESTESPENVALSADPEGKEDGEEPPGTSQTSPEEFTDAKHESLFSLETNFLEEESGDNSSLKASQDPFLQHVNKELKEKAIQAVATNPKTTHELKWPILGQLFFSSKFQKLETFKPPKDIDLKSLHLQKPLESTWTKTNSQFLSGPQKSSSPFTPLQKELFLIMNSYRDLFYPERTALKNGEEIRHVYCLHVINHILKANAQVLGNNSRRRSQKFGVGDDDDFRDQGLTRPKVLIVVPFREAALRVVQLFISLLEGDSKKKIIVSNKKRFQGEYGSDPEERPPNLKRPEDYEAVFVGNIDDHFRIGVAILQRSIRLYAPFYSSDILIASPLGLRTIIGGEGEKKRDFDFLSSIELLIIDQADIYLMQNWEHVLHLMNHMNLLPLDSHGVDFSRVRMWSLNNWSKYYRQTLLFGALQDAQINSVFNKYCVNMQGQVAVRNVPMTGSISHVLVQLPHVFQRMEAENLASVIDARFNFFVNKILPQYRDAVMSHTLIYIPSYFDFVRLRNYFKKEELNFTHICEYTQKSGVSRARHFFLQGEKQFLLFTERFHFYKRYTIKGIRNLIFYELPTYPHFYSEICNMLRATNRGEEATWTCTVLYSKYDAQRLAAVVGVERAAQMLQSNKNVHLFITGEK
B2: E3 ubiquitin-protein ligase LNX (Homo sapiens), Q8TBB1 (parent)
chain: MNQPESANDPEPLCAVCGQAHSLEENHFYSYPEEVDDDLICHICLQALLDPLDTPCGHTYCTLCLTNFLVEKDFCPMDRKPLVLQHCKKSSILVNKLLNKLLVTCPFREHCTQVLQRCDLEHHFQTSCKGASHYGLTKDRKRRSQDGCPDGCASLTATAPSPEVSAAATISLMTDEPGLDNPAYVSSAEDGQPAISPVDSGRSNRTRARPFERSTIRSRSFKKINRALSVLRRTKSGSAVANHADQGRENSENTTAPEVFPRLYHLIPDGEITSIKINRVDPSESLSIRLVGGSETPLVHIIIQHIYRDGVIARDGRLLPGDIILKVNGMDISNVPHNYAVRLLRQPCQVLWLTVMREQKFRSRNNGQAPDAYRPRDDSFHVILNKSSPEEQLGIKLVRKVDEPGVFIFNVLDGGVAYRHGQLEENDRVLAINGHDLRYGSPESAAHLIQASERRVHLVVSRQVRQRSPDIFQEAGWNSNGSWSPGPGERSNTPKPLHPTITCHEKVVNIQKDPGESLGMTVAGGASHREWDLPIYVISVEPGGVISRDGRIKTGDILLNVDGVELTEVSRSEAVALLKRTSSSIVLKALEVKEYEPQEDCSSPAALDSNHNMAPPSDWSPSWVMWLELPRCLYNCKDIVLRRNTAGSLGFCIVGGYEEYNGNKPFFIKSIVEGTPAYNDGRIRCGDILLAVNGRSTSGMIHACLARLLKELKGRITLTIVSWPGTFL
partner: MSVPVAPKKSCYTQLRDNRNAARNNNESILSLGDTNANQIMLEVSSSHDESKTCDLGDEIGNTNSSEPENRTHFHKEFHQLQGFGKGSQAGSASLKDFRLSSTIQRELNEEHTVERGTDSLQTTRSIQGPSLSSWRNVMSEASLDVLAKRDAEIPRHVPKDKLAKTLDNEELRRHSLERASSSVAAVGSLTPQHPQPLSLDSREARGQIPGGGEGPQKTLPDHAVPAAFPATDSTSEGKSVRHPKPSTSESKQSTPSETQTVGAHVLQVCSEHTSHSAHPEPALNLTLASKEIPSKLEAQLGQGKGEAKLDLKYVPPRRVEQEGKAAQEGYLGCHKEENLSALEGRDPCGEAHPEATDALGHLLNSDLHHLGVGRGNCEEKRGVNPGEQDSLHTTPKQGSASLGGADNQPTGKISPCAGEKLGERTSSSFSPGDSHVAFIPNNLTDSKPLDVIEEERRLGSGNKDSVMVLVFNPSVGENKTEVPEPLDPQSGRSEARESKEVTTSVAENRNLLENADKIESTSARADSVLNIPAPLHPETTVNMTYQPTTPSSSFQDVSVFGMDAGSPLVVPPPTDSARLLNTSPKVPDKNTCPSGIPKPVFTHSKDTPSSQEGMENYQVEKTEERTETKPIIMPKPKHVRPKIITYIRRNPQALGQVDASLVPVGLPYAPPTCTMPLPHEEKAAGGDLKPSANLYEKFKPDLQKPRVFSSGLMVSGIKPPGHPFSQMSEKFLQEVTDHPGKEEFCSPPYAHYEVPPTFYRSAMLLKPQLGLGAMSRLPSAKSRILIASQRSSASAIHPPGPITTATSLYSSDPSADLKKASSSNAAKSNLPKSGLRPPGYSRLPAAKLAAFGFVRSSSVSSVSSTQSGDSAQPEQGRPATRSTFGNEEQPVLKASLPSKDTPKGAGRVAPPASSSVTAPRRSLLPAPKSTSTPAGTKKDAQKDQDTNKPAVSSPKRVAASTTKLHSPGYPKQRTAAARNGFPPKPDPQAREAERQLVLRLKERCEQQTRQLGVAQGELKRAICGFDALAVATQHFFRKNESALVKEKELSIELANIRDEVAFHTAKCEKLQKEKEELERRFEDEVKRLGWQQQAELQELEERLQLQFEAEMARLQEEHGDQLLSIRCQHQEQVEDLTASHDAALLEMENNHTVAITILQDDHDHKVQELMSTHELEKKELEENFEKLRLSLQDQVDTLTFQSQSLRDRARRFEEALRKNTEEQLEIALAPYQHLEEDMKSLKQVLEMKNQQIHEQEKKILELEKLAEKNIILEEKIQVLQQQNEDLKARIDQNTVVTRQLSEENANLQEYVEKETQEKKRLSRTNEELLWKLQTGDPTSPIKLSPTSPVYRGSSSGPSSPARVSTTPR
B3: F-box only protein 11 (Homo sapiens), Q86XK2 (parent)
chain: MNSVRAANRRPRRVSRPRPVQQQQQQPPQQPPPQPPQQQPPQQQPPPPPQQQQQQQPPPPPPPPPPLPQERNNVGERDDDVPADMVAEESGPGAQNSPYQLRRKTLLPKRTACPTKNSMEGASTSTTENFGHRAKRARVSGKSQDLSAAPAEQYLQEKLPDEVVLKIFSYLLEQDLCRAACVCKRFSELANDPILWKRLYMEVFEYTRPMMHPEPGKFYQINPEEYEHPNPWKESFQQLYKGAHVKPGFAEHFYSNPARYKGRENMLYYDTIEDALGGVQEAHFDGLIFVHSGIYTDEWIYIESPITMIGAAPGKVADKVIIENTRDSTFVFMEGSEDAYVGYMTIRFNPDDKSAQHHNAHHCLEITVNCSPIIDHCIIRSTCTVGSAVCVSGQGACPTIKHCNISDCENVGLYITDHAQGIYEDNEISNNALAGIWVKNHGNPIIRRNHIHHGRDVGVFTFDHGMGYFESCNIHRNRIAGFEVKAYANPTVVRCEIHHGQTGGIYVHEKGRGQFIENKIYANNFAGVWITSNSDPTIRGNSIFNGNQGGVYIFGDGRGLIEGNDIYGNALAGIQIRTNSCPIVRHNKIHDGQHGGIYVHEKGQGVIEENEVYSNTLAGVWVTTGSTPVLRRNRIHSGKQVGVYFYDNGHGVLEDNDIYNHMYSGVQIRTGSNPKIRRNKIWGGQNGGILVYNSGLGCIEDNEIFDNAMAGVWIKTDSNPTLRRNKIHDGRDGGICIFNGGRGLLEENDIFRNAQAGVLISTNSHPILRKNRIFDGFAAGIEITNHATATLEGNQIFNNRFGGLFLASGVNVTMKDNKIMNNQDAIEKAVSRGQCLYKISSYTSYPMHDFYRCHTCNTTDRNAICVNCIKKCHQGHDVEFIRHDRFFCDCGAGTLSNPCTLAGEPTHDTDTLYDSAPPIESNTLQHN
B4: Acetylcholine receptor subunit gamma (Homo sapiens), P07510 (parent)
chain: MHGGQGPLLLLLLLAVCLGAQGRNQEERLLADLMQNYDPNLRPAERDSDVVNVSLKLTLTNLISLNEREEALTTNVWIEMQWCDYRLRWDPRDYEGLWVLRVPSTMVWRPDIVLENNVDGVFEVALYCNVLVSPDGCIYWLPPAIFRSACSISVTYFPFDWQNCSLIFQSQTYSTNEIDLQLSQEDGQTIEWIFIDPEAFTENGEWAIQHRPAKMLLDPAAPAQEAGHQKVVFYLLIQRKPLFYVINIIAPCVLISSVAILIHFLPAKAGGQKCTVAINVLLAQTVFLFLVAKKVPETSQAVPLISKYLTFLLVVTILIVVNAVVVLNVSLRSPHTHSMARGVRKVFLRLLPQLLRMHVRPLAPAAVQDTQSRLQNGSSGWSITTGEEVALCLPRSELLFQQWQRQGLVAAALEKLEKGPELGLSQFCGSLKQAAPAIQACVEACNLIACARHQQSHFDNGNEEWFLVGRVLDRVCFLAMLSLFICGTAGIFLMAHYNRVPALPFPGDPRPYLPSPD
partner: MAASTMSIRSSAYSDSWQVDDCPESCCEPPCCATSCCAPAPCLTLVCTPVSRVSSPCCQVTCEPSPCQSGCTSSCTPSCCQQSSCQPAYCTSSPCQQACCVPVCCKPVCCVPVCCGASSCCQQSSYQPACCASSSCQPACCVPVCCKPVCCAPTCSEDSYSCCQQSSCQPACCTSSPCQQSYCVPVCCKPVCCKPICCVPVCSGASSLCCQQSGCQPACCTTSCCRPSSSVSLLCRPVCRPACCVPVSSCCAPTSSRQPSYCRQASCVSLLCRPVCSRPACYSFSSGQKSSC
B5: Muscleblind-like protein 1 (Homo sapiens), Q9NR56 (parent)
chain: MAVSVTPIRDTKWLTLEVCREFQRGTCSRPDTECKFAHPSKSCQVENGRVIACFDSLKGRCSRENCKYLHPPPHLKTQLEINGRNNLIQQKNMAMLAQQMQLANAMMPGAPLQPVPMFSVAPSLATNASAAAFNPYLGPVSPSLVPAEILPTAPMLVTGNPGVPVPAAAAAAAQKLMRTDRLEVCREYQRGNCNRGENDCRFAHPADSTMIDTNDNTVTVCMDYIKGRCSREKCKYFHPPAHLQAKIKAAQYQVNQAAAAQAAATAAAMTQSAVKSLKRPLEATFDLGIPQAVLPPLPKRPALEKTNGATAVFNTGIFQYQQALANMQLQQHTAFLPPVPMVHGATPATVSAATTSATSVPFAATATANQIPIISAEHLTSHKYVTQM
partner: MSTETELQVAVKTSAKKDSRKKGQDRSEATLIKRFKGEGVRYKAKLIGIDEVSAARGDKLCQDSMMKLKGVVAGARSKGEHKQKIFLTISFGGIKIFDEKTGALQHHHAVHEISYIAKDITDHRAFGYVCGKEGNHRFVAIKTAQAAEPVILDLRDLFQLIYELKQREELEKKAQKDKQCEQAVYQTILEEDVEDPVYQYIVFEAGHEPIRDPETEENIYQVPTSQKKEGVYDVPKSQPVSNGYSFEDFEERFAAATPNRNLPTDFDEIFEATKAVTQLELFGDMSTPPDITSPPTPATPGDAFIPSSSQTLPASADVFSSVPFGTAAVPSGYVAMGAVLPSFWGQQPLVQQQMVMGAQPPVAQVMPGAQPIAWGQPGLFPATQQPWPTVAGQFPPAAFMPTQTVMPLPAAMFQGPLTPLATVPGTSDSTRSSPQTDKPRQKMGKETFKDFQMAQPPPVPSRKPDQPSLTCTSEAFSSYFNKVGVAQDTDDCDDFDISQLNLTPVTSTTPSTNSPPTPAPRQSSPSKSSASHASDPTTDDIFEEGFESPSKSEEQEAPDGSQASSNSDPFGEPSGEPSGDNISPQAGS
B6: Zinc finger CCCH domain-containing protein 11A (Homo sapiens), O75152 (parent)
chain: MPNQGEDCYFFFYSTCTKGDSCPFRHCEAAIGNETVCTLWQEGRCFRQVCRFRHMEIDKKRSEIPCYWENQPTGCQKLNCAFHHNRGRYVDGLFLPPSKTVLPTVPESPEEEVKASQLSVQQNKLSVQSNPSPQLRSVMKVESSENVPSPTHPPVVINAADDDEDDDDQFSEEGDETKTPTLQPTPEVHNGLRVTSVRKPAVNIKQGECLNFGIKTLEEIKSKKMKEKSKKQGEGSSGVSSLLLHPEPVPGPEKENVRTVVRTVTLSTKQGEEPLVRLSLTERLGKRKFSAGGDSDPPLKRSLAQRLGKKVEAPETNIDKTPKKAQVSKSLKERLGMSADPDNEDATDKVNKVGEIHVKTLEEILLERASQKRGELQTKLKTEGPSKTDDSTSGARSSSTIRIKTFSEVLAEKKHRQQEAERQKSKKDTTCIKLKIDSEIKKTVVLPPIVASRGQSEEPAGKTKSMQEVHIKTLEEIKLEKALRVQQSSESSTSSPSQHEATPGARRLLRITKRTGMKEEKNLQEGNEVDSQSSIRTEAKEASGETTGVDITKIQVKRCETMREKHMQKQQEREKSVLTPLRGDVASCNTQVAEKPVLTAVPGITRHLTKRLPTKSSQKVEVETSGIGDSLLNVKCAAQTLEKRGKAKPKVNVKPSVVKVVSSPKLAPKRKAVEMHAAVIAAVKPLSSSSVLQEPPAKKAAVAVVPLVSEDKSVTVPEAENPRDSLVLPPTQSSSDSSPPEVSGPSSSQMSMKTRRLSSASTGKPPLSVEDDFEKLIWEISGGKLEAEIDLDPGKDEDDLLLELSEMIDS
B7: Acetylcholine receptor subunit gamma (Homo sapiens), P07510 (parent)
chain: B4 chain
partner: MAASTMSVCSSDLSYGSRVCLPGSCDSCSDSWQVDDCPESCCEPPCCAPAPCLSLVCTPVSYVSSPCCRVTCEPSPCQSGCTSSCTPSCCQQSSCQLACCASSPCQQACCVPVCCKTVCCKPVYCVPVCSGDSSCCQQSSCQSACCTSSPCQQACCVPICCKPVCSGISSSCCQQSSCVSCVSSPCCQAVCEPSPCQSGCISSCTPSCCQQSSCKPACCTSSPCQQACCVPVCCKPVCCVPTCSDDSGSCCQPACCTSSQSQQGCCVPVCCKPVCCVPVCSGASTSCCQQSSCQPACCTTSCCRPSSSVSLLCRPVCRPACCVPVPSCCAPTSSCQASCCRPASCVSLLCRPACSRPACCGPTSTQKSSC

Variants of: B1
Conditions: with rufy1_human RUFY1, Q96T51
rufy1_human RUFY1, Q96T51, sequence (Q96T51 whole entry): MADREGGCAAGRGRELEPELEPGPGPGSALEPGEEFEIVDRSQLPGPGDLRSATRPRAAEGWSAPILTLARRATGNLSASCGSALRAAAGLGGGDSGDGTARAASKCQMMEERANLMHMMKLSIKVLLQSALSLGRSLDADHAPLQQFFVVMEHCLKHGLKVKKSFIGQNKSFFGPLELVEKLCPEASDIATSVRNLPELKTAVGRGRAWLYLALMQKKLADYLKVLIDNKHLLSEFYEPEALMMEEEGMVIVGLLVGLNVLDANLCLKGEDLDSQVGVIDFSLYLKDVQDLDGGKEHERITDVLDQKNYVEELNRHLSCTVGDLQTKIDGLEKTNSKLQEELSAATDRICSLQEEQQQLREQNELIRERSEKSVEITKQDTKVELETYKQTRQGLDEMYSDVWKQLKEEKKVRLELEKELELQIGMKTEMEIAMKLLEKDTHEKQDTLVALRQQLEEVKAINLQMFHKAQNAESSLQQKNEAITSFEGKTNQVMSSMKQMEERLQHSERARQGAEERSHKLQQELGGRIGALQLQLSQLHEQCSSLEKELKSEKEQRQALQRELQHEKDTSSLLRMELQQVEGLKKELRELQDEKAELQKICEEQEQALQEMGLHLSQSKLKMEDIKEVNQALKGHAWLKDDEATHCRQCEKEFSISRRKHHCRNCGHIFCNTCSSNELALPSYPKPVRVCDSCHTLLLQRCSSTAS

Variant	effect of a mutation on the interaction
D399E	with no effect

Variants of: B2
Conditions: with mtus2_human MTUS2, Q5JR59

Variant	effect of a mutation on the interaction
E295K	disrupting interaction strength

Variants of: B3
Conditions: with skp1_human SKP1, P63208
skp1_human SKP1, P63208, sequence (P63208 whole entry): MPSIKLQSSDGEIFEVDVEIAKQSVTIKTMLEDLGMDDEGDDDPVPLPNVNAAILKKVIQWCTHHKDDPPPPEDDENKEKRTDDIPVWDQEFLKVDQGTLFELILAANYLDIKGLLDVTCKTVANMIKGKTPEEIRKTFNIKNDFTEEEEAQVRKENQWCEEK

Variant	effect of a mutation on the interaction
Y692F	with no effect

Variants of: B4
Conditions: with kr109_human KRTAP10-9, P60411

Variant	effect of a mutation on the interaction
I448T	with no effect

Variants of: B5
Conditions: with dab1_human DAB1, O75553

Variant	effect of a mutation on the interaction
V45A	with no effect

Variants of: B6
Conditions: with mlh1_human MLH1, P40692
mlh1_human MLH1, P40692, sequence (P40692 whole entry): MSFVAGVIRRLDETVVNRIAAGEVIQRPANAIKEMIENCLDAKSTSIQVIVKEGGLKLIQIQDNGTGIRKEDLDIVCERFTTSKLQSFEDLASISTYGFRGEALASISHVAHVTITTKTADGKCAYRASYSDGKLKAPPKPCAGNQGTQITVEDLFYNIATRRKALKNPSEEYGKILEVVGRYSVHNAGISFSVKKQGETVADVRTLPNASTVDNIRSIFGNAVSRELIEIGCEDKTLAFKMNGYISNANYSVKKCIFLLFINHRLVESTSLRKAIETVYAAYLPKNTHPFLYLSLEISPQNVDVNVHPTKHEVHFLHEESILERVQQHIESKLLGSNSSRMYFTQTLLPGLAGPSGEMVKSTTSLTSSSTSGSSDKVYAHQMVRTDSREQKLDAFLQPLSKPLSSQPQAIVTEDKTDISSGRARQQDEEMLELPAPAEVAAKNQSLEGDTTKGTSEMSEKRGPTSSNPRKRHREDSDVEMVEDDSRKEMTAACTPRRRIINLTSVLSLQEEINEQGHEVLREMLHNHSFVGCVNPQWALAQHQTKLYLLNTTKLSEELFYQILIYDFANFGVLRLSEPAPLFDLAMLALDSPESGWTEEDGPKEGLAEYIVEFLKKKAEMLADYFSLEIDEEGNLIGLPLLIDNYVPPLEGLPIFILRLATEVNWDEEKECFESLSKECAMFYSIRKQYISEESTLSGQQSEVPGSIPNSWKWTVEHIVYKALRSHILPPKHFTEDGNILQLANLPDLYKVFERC

Variant	effect of a mutation on the interaction
E408D	with no effect

Variants of: B7
Conditions: with kr107_human KRTAP10-7, P60409

Variant	effect of a mutation on the interaction
I448T	with no effect

From IntAct's records for PubMed 29892012
